Experimental data reported in paper PMC4624033.

Columns and labels:
Assay in all cases: AUC
[1] = molecular target: Pcdhα7 EC1-EC5 (mouse)
[2] = molecular target: PcdhαC2 EC1-EC4 (mouse)
[3] = molecular target: PcdhαC2 EC1-EC5 (mouse)
[4] = molecular target: PcdhαC2 EC1-EC6 (complete ectodomain) (mouse)
[5] = molecular target: PcdhαC2 EC1-EC6 S118R (mouse)
[6] = molecular target: PcdhαC2 EC2-EC6 (mouse)
[7] = molecular target: PcdhγA8 EC1-EC4 (mouse)
[8] = molecular target: PcdhγA8 EC2-EC6 (mouse)
[9] = molecular target: PcdhγB6 EC1-EC4
[10] = molecular target: PcdhγB6 EC1-EC6 (complete ectodomain)
[11] = molecular target: PcdhγC5 EC1-EC5 (mouse)
[12] = molecular target: PcdhγC5 EC1-EC6 (complete ectodomain) (mouse)
[13] = molecular target: PcdhγC5 EC1-EC6 S116R (mouse)
[14] = molecular target: PcdhγC5 EC2-EC6 (mouse)
[15] = molecular target: PcdhγC5 EC2-EC6 S116R (mouse)

Pcdhα7 EC1-EC5 (domain or fragment) was tested, and the Kd [1] was 2.9 µM and the stoichiometry N [1] was 2.

For PcdhαC2 EC1-EC4 (domain or fragment), the Kd [2] was 20 µM and the stoichiometry N [2] was 2.

Work on PcdhαC2 EC1-EC5 (domain or fragment) yielded a Kd [3] of 5.9 µM and a stoichiometry N [3] of 2.

“PcdhαC2 EC1-EC6 (complete ectodomain) (domain or fragment)” was tested, and the Kd [4] was 0.1 µM and the stoichiometry N [4] was 4.

Work on “PcdhαC2 EC1-EC6 S118R (domain or fragment)” yielded a Kd [5] of 1.8 µM and a stoichiometry N [5] of 4.

PcdhαC2 EC2-EC6 (domain or fragment) was tested, and the stoichiometry N [6] was 2.

Work on PcdhγA8 EC1-EC4 (domain or fragment) yielded a Kd [7] of 30 µM and a stoichiometry N [7] of 2.

Substance PcdhγA8 EC2-EC6 (domain or fragment) has a Kd [8] of 23 µM and a stoichiometry N [8] of 2.

For PcdhγB6 EC1-EC4 (domain or fragment), the Kd [9] was 29 µM and the stoichiometry N [9] was 2.

In the case of “PcdhγB6 EC1-EC6 (complete ectodomain) (domain or fragment)”, the stoichiometry N [10] is reported as 4.

PcdhγC5 EC1-EC5 (domain or fragment) was tested, and the Kd [11] was 100 µM and the stoichiometry N [11] was 2.

With “PcdhγC5 EC1-EC6 (complete ectodomain) (domain or fragment)” the stoichiometry N [12] was 4.

“PcdhγC5 EC1-EC6 S116R (domain or fragment)” showed a Kd [13] of 5.7 µM and a stoichiometry N [13] of 2.

PcdhγC5 EC2-EC6 (domain or fragment) gave a stoichiometry N [14] of 2.

Substance “PcdhγC5 EC2-EC6 S116R (domain or fragment)” has a Kd [15] of 14 µM and a stoichiometry N [15] of 2.
